In publication PMC3675491 (Nucleic Acids Research, 2013):

Columns and labels:
[1] = target: T1, His6-σ^HrdB σ2 fragment (amino acids 211–347) (S. coelicolor, UniProt P18183 211-347); experiment: […]
T1 sequence: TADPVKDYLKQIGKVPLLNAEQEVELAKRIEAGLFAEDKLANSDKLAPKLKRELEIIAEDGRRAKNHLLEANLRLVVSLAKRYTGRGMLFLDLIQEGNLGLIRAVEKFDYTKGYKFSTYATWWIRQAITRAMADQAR

[2] = target: T2, His6-σ^HrdB σ2–σ4 fragment (amino acids 211–511) (S. coelicolor, UniProt P18183 211-511); experiment: […]
T2 sequence: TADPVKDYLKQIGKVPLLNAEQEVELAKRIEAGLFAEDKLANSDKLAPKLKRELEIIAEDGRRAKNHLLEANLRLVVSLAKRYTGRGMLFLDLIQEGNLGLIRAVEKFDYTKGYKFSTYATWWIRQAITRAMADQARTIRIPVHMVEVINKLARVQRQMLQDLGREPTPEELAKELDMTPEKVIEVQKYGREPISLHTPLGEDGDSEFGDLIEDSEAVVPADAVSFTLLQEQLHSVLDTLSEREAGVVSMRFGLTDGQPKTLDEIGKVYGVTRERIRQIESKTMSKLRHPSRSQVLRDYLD

[3] = target: T3, σ^HrdB (purified protein, 55.9 kDa) (S. coelicolor, UniProt P18183 1-511); experiment: SEC
T3 sequence: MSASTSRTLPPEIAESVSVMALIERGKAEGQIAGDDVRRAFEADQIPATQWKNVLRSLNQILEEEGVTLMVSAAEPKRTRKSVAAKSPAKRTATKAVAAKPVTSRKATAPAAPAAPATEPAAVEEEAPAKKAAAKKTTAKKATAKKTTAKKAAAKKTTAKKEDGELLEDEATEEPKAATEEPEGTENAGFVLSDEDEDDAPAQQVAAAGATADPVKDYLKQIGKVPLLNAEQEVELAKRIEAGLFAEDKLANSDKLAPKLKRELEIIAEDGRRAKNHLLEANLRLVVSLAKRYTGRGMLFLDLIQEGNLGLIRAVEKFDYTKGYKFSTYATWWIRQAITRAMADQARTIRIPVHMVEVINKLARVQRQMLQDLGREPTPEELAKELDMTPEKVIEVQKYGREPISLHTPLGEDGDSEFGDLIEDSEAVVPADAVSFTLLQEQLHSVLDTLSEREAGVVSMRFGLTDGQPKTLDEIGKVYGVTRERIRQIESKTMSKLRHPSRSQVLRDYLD

[4] = target: the molecule itself; experiment: SEC

B1: RbpA^Sc (native, untagged purified protein, 14.1 kDa) (natural protein)
chain: MSERALRGTRLVVTSYETDRGIDLAPRQAVEYACEKGHRFEMPFSVEAEIPPEWECKVCGAQALLVDGDGPEEKKAKPARTHWDMLMERRTREELEEVLEERLAVLRSGAMNIAVHPRDSRKSA
- binding result [1]: binds
- binding result [2]: binds
- binding result [3]: binds
- stoichiometry N [4]: 2
